Reference: patent US20060182736

What was measured:
Assay in all cases: cell_activity
[1] = test system: TAT-F435-KRAB/KOX (QSHR2-RDHT-RSHR) (artificial); settings: +/-0.35, VEGF mRNA, 293 cells; protein 2.7 fold; H460 3.8 fold at 12 h (p247)
[2] = test system: TAT-F435-p65 (QSHR2-RDHT-RSHR) (artificial); settings: +/-0.5, secreted VEGF at 48 h, 293 cells, lysate
[3] = test system: TAT-F475-KRAB (QSHR2-RDHT-RSNR) (artificial)
[4] = test system: TAT-F121-KRAB (QSHT-RSHR-RDHT) (artificial); settings: 293 cells
TAT-F121-KRAB (QSHT-RSHR-RDHT) (artificial), sequence (chain, as listed by the source): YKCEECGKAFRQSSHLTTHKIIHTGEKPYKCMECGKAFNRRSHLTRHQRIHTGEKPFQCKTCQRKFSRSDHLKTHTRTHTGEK

[5] = test system: TAT-F475-p65 (QSHR2-RDHT-RSNR) (artificial); settings: +/-0.48, 293 cells
TAT-F475-p65 (QSHR2-RDHT-RSNR) (artificial), sequence (chain, as listed by the source): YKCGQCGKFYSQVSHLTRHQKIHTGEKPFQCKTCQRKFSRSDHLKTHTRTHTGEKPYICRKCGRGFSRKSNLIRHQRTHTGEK

TAT-F435-p65 (QSHR2-RDHT-RSHR) (artificial), sequence (chain, as listed by the source): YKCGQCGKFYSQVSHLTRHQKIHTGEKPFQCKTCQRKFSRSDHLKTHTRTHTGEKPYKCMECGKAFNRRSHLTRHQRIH

| Substance | activity (fold repression) [1] | activity (fold activation) [2] | activity (fold repression) ([3]; +/-0.4, VEGF mRNA, 293 cells) | activity (fold repression) ([4]; +/-0.01, VEGF mRNA, lysate) | activity (fold activation) [5] | activity (fold repression) ([3]; 80 ug lysate, HEK293, 1.5 fold at 40 ug, vs TAT-only) | activity (fold repression) ([4]; +/-0.14, purified protein) |
| --- | --- | --- | --- | --- | --- | --- | --- |
| endogenous VEGF-A gene | 3.1 | 2.5 | 3.1 | 1.7 | – | – | – |
| native human VEGF promoter in pGL3-basic luciferase reporter | – | – | – | – | 2.5 | 2 | 2.1 |
